Results on 15 molecules are retold here after patent US6025158A, “Nucleic acids encoding humanized anti-IL-8 monoclonal antibodies” (Genentech, Inc., dated 2000).

Usually Kd stands for the concentration at which binding is half-saturated.

For assay [1], the target named is T1, recombinant human IL-8, (ser-IL-8)72 (human, UniProt P10145). The experiment in a line: inhibition of 125I-IL-8 binding to human neutrophils.
Assay [2] deals with T1, recombinant human IL-8, (ser-IL-8)72.
The target is the same in assay [3]. Nature of the assay: competitive binding RIP, Scatchard.
Assay [4] shares this target. Nature of the assay: 125I-IL-8 neutrophil competition; against F(ab)-1.
Assay [5] has the same target. The experiment in a line: inhibition of 125I-IL-8 binding to human neutrophils. This is another data set of the same source.
Assay [6] concerns the target IL-8 binding to IL-8 receptors on human neutrophils (Homo sapiens, UniProt P10145). Nature of the assay: inhibition of 125I-IL-8 binding to human neutrophils (competition binding assay). The conditions noted are these: for IC50: humanized 6G425 variants, Table 4, read-out: IC50 Mean (concentration of variant necessary to inhibit binding of iodinated IL8 to human neutrophils).

The target in another assay is IL-8 (Homo sapiens, UniProt P10145). Nature of the assay: human (wild type) IL-8 mediated neutrophil chemotaxis. Format: cell-based. As for the experimental part:
Human neutrophils were isolated, counted and resuspended at 5×10^6 cells/ml in Hank's balanced salt solution (abbreviated HBSS; without calcium and magnesium) with 0.1% bovine serum albumin. The neutrophils were labeled by adding calcein AM (Molecular Probe, Eugene, Oreg.) at a final concentration of 2.0 μM. Following a 30 minute incubation at 37° C., cells were washed twice with HBSS-BSA and resuspended at 5×10^6 cells/ml.
Chemotaxis experiments were carried out in a Neuro Probe (Cabin John, Md.) 96-well chamber, model MBB96. […] 100 μl of the calcein AM-labeled neutrophils were added to the upper chambers and allowed to migrate through a 5 micrometer porosity PVP free polycarbonate framed filter (Neuro Probe Inc.) toward the bottom chamber sample. The chemotaxis apparatus was then incubated for 40 to 60 minutes at 37° C. with 5% CO2. At the end of the incubation, neutrophils remaining in the upper chamber were aspirated and upper chambers were washed three times with PBS. Then the polycarbonate filter was removed, non-migrating cells were wiped off with a squeegee wetted with PBS, and the filter was air dried for 15 minutes.
The relative number of neutrophils migrating through the filter (Neutrophil migration index) was determined by measuring fluorescence intensity of the filter and the fluorescence intensity of the contents of the lower chamber and adding the two values together. Fluorescence intensity was measured with a CytoFluor 2300 fluorescent plate reader (Millipore Corp. Bedford, Mass.) configured to read a Corning 96-well plate using the 485-20 nm excitation filter and a 530-25 emission filter, with the sensitivity set at 3.
The affinity matured Fab variant, 6G4V11N35E, was tested for its ability to inhibit IL-8 mediated neutrophil chemotaxis as described in Section (B)(2) above. The reuseable 96-well chemotaxis chamber described in Section (B)(2) was replaced with endotoxin-free disposable chemotaxis chambers containing 5-micron PVP-free polycarbonate filters (ChemoTx101-5, Neuro Probe, Inc. Cabin John, Md.).

For a further assay, the target named is rhesus IL-8 (rhesus, UniProt P67813). The experiment in a line: cell-based or functional assay.
Assay [7] addresses human monomeric IL-8 (human).
The target of assay [8] is T1, recombinant human IL-8, (ser-IL-8)72. This is another data set of the same source.
The target is the same in assay [9]. Nature of the assay: competition phage ELISA (K64C IL-8 coated, free IL-8). From the text: The first step of the assay requires that the concentrations of the phage carrying the wild type and mutated antibodies be normalized, allowing a comparison of the relative affinities of each antibody.
A further assay has as its target T2, rabbit IL-8 (rabbit, UniProt P19874).
T2 sequence: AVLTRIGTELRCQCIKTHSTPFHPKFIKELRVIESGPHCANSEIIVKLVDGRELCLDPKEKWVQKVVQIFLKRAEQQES
The experiment in a line: cell-based or functional assay.

In assay [10] the target is human monomeric IL-8 (human). The source holds these as a separate data set.
The target in assay [11] is T1, recombinant human IL-8, (ser-IL-8)72. The source holds these as a separate data set.

Positions count from the first letter of the chain named. Numbers in names are those of the source. Read-outs that look alike come from different tables or passages of the source.

Turning to rhu4D5 F(ab) (Fab), in [1], the IC50 was over 200 µM.

B1: monoclonal antibody 5.12.14 (antibody, V domains shown)
VH: EVQLVESGGGLVPPGGSLKLSCAASGFIFSSYGMSWVRQTPGKSLELVATINNNGDSTYYPDSVKGRFTISRDNAKNTLYLQMSSLKSEDTAMFYCARALISSATWFGYWGQGTLVTVSA
VL: DIVMTQSQKFMSTSVGDRVSVTCKASQNVGTNVAWYQQKPGQSPKALIYSSSYRYSGVPDRFTGSGSGTDFTLTISHVQSEDLADYFCQQYNIYPLTFGPGTKLELKR
In the case of B1, the neutrophil chemotaxis induced by IL-8 (Boyden chamber) in [2] amounted to 70%. Moreover, the Kd in [3] amounted to 0.3 nM.

B2: humanized 6G425 F(ab)-2 (Fab, V domains shown)
VH: EVQLVESGGGLVQPGGSLRLSCAASGYSFSSHYMHWVRQAPGKGLEWVGYIDPSNGETTYNQKFKGRATISRDNSKNTLYLQMNSLRAEDTAVYYCAARGDYRYNGDWFFDVWGQGT
VL: DIQMTQSPSSLSASVGDRVTITCRSSQSLVHGIGNTYLHWYQQKPGKAPKLLIYYKVSNRFSGVPSRFSGSGSGTDFTLTISSLQPEDFATYYCSQSTHVPLTFGQGTKVEIKR
For the molecule B2, in assay [4], the “fold decrease in IL-8 binding” value is under 2 fold. The IC50 in assay [5] was found to be 106 nM.

B3: F(ab)-6: humanized variant, F(ab)-1 with IleH69Leu and LeuH78Ala (antibody, V domains shown)
VL: B2 VL
VH: B2 VH with A68F, I70L, L79A
In the case of B3, in [6] (compared to F(ab)-1), the “increase in affinity for IL-8” value is given as “approximately 2 fold”. Further, in assay [6], the IC50 was 34.6 nM.

B4: humanized 6G425 F(ab)-3 (Fab, V domains shown)
VH: B2 VH with A68F, R72V
VL: B2 VL
Regarding B4, the “fold decrease in IL-8 binding” value in [4] was under 2 fold. Further, in assay [5], the IC50 was determined as 79.8 nM.

B5: F(ab)-7: humanized variant, F(ab)-6 with LeuH80Val (antibody, V domains shown)
VL: B2 VL
VH: B2 VH with A68F, I70L, L79A, L81V
As for B5, the IC50 in assay [6] came to 38.4 nM.

B6: 5.12.14 Fab: recombinant human-murine chimeric Fab of 5.12.14 (protein)
light: DIVMTQSQKFMSTSVGDRVSVTCKASQNVGTNVAWYQQKPGQSPKALIYSSSYRYSGVPDRFTGSGSGTDFTLTISHVQSEDLADYFCQQYNIYPLTFGPGTKLELRRAVAAPSVFIFPPSDEQLKSGTASVVCLLNNFYPREAKVQWKVDNALQSGNSQESVTEQDSKDSTYSLSSTLTLSKADYEKHKVYACEVTHQGLSSPVTKSFNRGEC
heavy: EVQLVESGGGLVPPGGSLKLSCAASGFIFSSYGMSWVRQTPGKSLELVATINNNGDSTYYPDSVKGRFTISRDNAKNTLYLQMSSLKSEDTAMFYCARALISSATWFGYWGQGTLVTVSAASTKGPSVFPLAPSSKSTSGGTAALGCLVKDYFPEPVTVSWNSGALTSGVHTFPAVLQSSGLYSLSSVVTVPSSSLGTQTYICNVNHKPSNTKVDKKVEPKSCDKTHT
B6: in the assay with IL-8, the “inhibition of human IL-8 mediated neutrophil chemotaxis / migration” value was “demonstrates the inhibition of human IL-8 mediated neutrophil chemotaxis”.

B7: 6G4.2.5 Fab: recombinant human-murine chimeric Fab of 6G4.2.5 (protein)
light: DIVMTQTPLSLPVSLGDQASISCRSSQSLVHGIGNTYLHWYLQKPGQSPKLLIYKVSNRFSGVPDRFSGSGSGTDFTLRISRVEAEDLGLYFCSQSTHVPLTFGAGTKLELKRAVAAPTVFIFPPSSEQLKSGTASVVCLLNNFYPREAKVQWKVDNALQSGNSQESVTEQDSKDSTYSLSSTLTLSKADYEKHKVYACEVTHQGLSSPVTKSFNRGEC
heavy: EIQLQQSGPELMKPGASVKISCKASGYSFSSHYMHWVKQSHGKSLEWIGYIDPSNGETTYNQKFKGKATLTVDTSSSTANVHLSSLTSDDSAVYFCARGDYRYNGDWFFDVWGAGTTVTVSSASTKGPSVFPLAPSSKSTSGGTAALGCLVKDYFPEPVTVSWNSGALTSGVHTFPAVLQSSGLYSLSSVVTVPSSSLGTQTYICNVNHKPSNTKVDKKVEPKSCDKTHT
As for B7, in the assay with IL-8, the “inhibition of human IL-8 mediated neutrophil chemotaxis / migration” value was “demonstrates the inhibition of human IL-8 mediated neutrophil chemotaxis”.

B8: F(ab)-8: humanized variant, F(ab)-6 with ArgH38Lys (protein)
light: DIQMTQSPSSLSASVGDRVTITCRSSQSLVHGIGNTYLHWYQQKPGKAPKLLIYKVSNRFSGVPSRFSGSGSGTDFTLTISSLQPEDFATYYCSQSTHVPLTFGQGTKVEIKRTVAAPSVFIFPPSDEQLKSGTASVVCLLNNFYPREAKVQWKVDNALQSGNSQESVTEQDSKDSTYSLSSTLTLSKADYEKHKVYACEVTHQGLSSPVTKSFNRGEC
heavy: EVQLVESGGGLVQPGGSLRLSCAASGYSFSSHYMHWVKQAPGKGLEWVGYIDPSNGETTYNQKFKGRFTLSRDNSKNTAYLQMNSLRAEDTAVYYCARGDYRYNGDWFFDVWGQGTLVTVSSASTKGPSVFPLAPSSKSTSGGTAALGCLVKDYFPEPVTVSWNSGALTSGVHTFPAVLQSSGLYSLSSVVTVPSSSLGTQTYICNVNHKPSNTKVDKKVEPKSCDKTHT
In the case of B8, the IC50 with IL-8 (read-out: IC50, human wild type IL-8 mediated neutrophil chemotaxis) was 12 nM.

B9: 6G4V11N35E Fab: affinity matured variant of humanized 6G4V11 Fab with Glu at position 35 of CDR-L1 (protein)
light: B8 light with N35E
heavy: B8 heavy with E6Q, K38R
B9: the IC50 with IL-8 (2 nM IL-8, disposable chemotaxis chambers, read-out: IC50, human IL-8 mediated neutrophil chemotaxis) is about 1.2 nM. Besides, the “inhibition of chemotaxis at 3.7 nM-33 nM” value with IL-8 (2 nM stimulus of rabbit or human IL-8, compared with buffer control) is on record as “could completely inhibit this response”.

B10: humanized 6G425 F(ab)-9 (Fab, V domains shown)
VH: EVQLVQSGGGLVQPGGSLRLSCAASGYSFSSHYMHWVRQAPGKGLEWVGYIDPSNGETTYNQKFKGRFTLSRDNSKNTAYLQMNSLRAEDTAVYYCARGDYRYNGDWFFDVWGQGTLVTVSS
VL: DIQMTQSPSSLSASVGDRVTITCRSSQSLVHGIGNTYLHWYQQKPGKAPKLLIYKVSNRFSGVPSRFSGSGSGTDFTLTISSLQPEDFATYYCSQSTHVPLTFGQGTKVEIKR
On to B10, for which the “IC50, IL-8 mediated neutrophil chemotaxis” value in the assay with rhesus IL-8 was about 22 nM; in assay [7], 15 nM; in assay [8], 12 nM.

B11: h6G4V11 alanine mutant H98A (CDR-L3) (Fab, V domains shown)
VH: B10 VH
VL: B10 VL with H98A
Consider B11, for which, in [9], the IC50 was determined as 8 nM.

B12: 6G4V11N35A F(ab')2 leucine zipper (antibody, V domains shown)
VH: B10 VH
VL: B10 VL with N35A
As for B12, the “IC50, IL-8 mediated neutrophil chemotaxis” value in the assay with rabbit IL-8 came to 4 nM; in assay [10] it was 1 nM. Also, the IC50, human IL-8 mediated neutrophil chemotaxis in assay [11] came to 1.5 nM.

B13: h6G4V11 alanine mutant Y37A (CDR-L1) (Fab, V domains shown)
VH: B10 VH
VL: B10 VL with Y37A
Consider B13, for which the binding result in assay [9] is recorded as “no binding”.

B14: humanized 6G425 F(ab)-8 (Fab, V domains shown)
VH: B10 VH with Q6E, R38K
VL: B10 VL
As to B14, the “IC50, IL-8 mediated neutrophil chemotaxis” value with rhesus IL-8 came to 10 nM.
